Measurements as given in PMC4831350.
Each block holds one substance with its values, some of them ahead of it.

What was measured:
[1] = target: human receptor for advanced glycation endproducts (RAGE) on A375-hRAGE cells (human) (UniProt Q15109)
[2] = target: receptor for advanced glycation endproducts (RAGE) on wild-type A375 cells (human (endogenous in A375)) (UniProt Q15109)
[3] = target: extracellular S100A4 secreted by A375-hS100A4 cells (human) (UniProt P26447)
[4] = target: extracellular S100A4 secreted by A375 cells (human (endogenous in A375)) (UniProt P26447)

increase of invasion of A375-hRAGE cells (Boyden chamber with Matrigel) with recombinant S100A4 (3000 ng/ml), against untreated cells [1]: 13% | increase of migration of A375-hRAGE cells (Boyden chamber) with recombinant S100A4 (3000 ng/ml), against untreated cells [1]: 23% | increase of invasion of A375 cells (Boyden chamber with Matrigel) with recombinant S100A4 (150 ng/ml), against untreated cells [2]: 21% | increase of migration of A375 cells (Boyden chamber) with recombinant S100A4 (150 ng/ml), against untreated cells [2]: 36%
Substance: recombinant human S100A4 (from UniProt P26447 1-101) (natural protein)

decrease of invasion of A375-hRAGE cells (Boyden chamber with Matrigel) with blocking anti-RAGE antibody (10 μg/ml; R&D), against untreated cells [1]: 15% | decrease of migration of A375-hRAGE cells (Boyden chamber) with blocking anti-RAGE antibody (10 μg/ml; R&D), against untreated cells [1]: 10%
Substance: extracellular S100A4 secreted by A375 cells (from UniProt P26447 1-101) (natural protein)

decrease of invasion of A375-hS100A4 cells (Boyden chamber with Matrigel) with sRAGE (150 ng/ml), against untreated cells; blocks extracellular S100A4 from membrane RAGE [3]: 15% | decrease of migration of A375-hS100A4 cells (Boyden chamber) with sRAGE (150 ng/ml), against untreated cells; blocks extracellular S100A4 from membrane RAGE [3]: 24% | relative migration of A375 cells (Boyden chamber) with sRAGE (150 ng/ml), untreated cells set as 100%; blocks extracellular S100A4 from membrane RAGE [4]: 63%
Substance: soluble RAGE (sRAGE) (domain or fragment)
